Measurements: US20080206136A1 (University of Pennsylvania, published 2008)
Bridges are numbered along the chain shown (N, C = ends). Where no end group is shown, it is not given here.

Target: T1, Her2 (UniProt P04626 23-652, limits assumed)
T1 construct: also called Her2/neu; Neu
Assay: method not stated; affinity for Her2

FCDGFYACYMDV (disulfide 2-8 (inferred), also called anti-Her2 peptide) [AHNP peptide]
Kd: 350 nM
